According to patent US20080145931A1, “Mature Dendritic Cell Compositions and Methods of Culturing Same” (Argos Therapeutics, Inc., priority 2004, published 2008):
Blank lines part the entries; values can stand above or below the molecule they belong to.

What was measured:
[1] = test system: NKT-cells; assay: Expansion of NKT-cells in PBMC cultures, CD1d/KRN7000 tetramer staining; assay type: cell-based, human; conditions: 100 ng/ml KRN7000 pulsed on MART-1 mRNA-loaded CD40L base process DCs, versus vehicle; FIG. 15a
Protocol: (§1) 100 ng/ml of KRN7000 was pulsed onto the CD40L base process DCs immediately post electroporation in combination with 500 U/ml IFN-γ and 1 μg/ml PGE2, for 24 hrs of culture.
(§2) DCs were generated as described above, employing the ‘CD40L base process’, and loaded with mRNA encoding MART-1. Post electroporation, DCs were incubated with KRN7000, IFN-γ and PGE2. DCs and PBMCs were co-cultured at a 1:10 ratio in the presence of 20 U/ml IL-2. PBMCs were restimulated three times under the same conditions, and the frequency of CTL induction determined by staining with MART-1/A2 tetramers, and the expansion of NKT-cells enumerated using KRN7000/CD1d tetramers by FACS.

[2] = test system: MART reactive T-cells; assay: Induction of MART-1 specific CTLs in PBMC cultures, MART-1/HLA-A2 tetramer staining; assay type: cell-based, human; conditions: KRN7000 pulsed on MART-1 mRNA transfected DC, versus vehicle; FIG. 15b
Protocol: as §1, §2

[3] = test system: DCs; assay: Transwell migration assay of DCs to lymph node chemokines CCL19 and 21; assay type: cell-based, human; conditions: 1 μg/ml PGE2 in addition to IFN-γ, CD40L mRNA transfected DCs; FIG. 8
Protocol: Chemotaxis of DCs was measured by migration through a 8 μm pore size polycarbonate filter in 24 well transwell chambers (coming Costar, Acton, MA). 5% human AB serum in Iscoves modified Dulbecco's medium or AIM-V medium containing 3-300 ng/ml CCL19, 5-250 ng/ml CCL21, a combination of both or medium alone was added to the lower chamber. 1−5×10^5 DCs in 0.1 ml were added to the upper chamber and incubated for 2-3 hours at 37° C. Lower chamber harvested into 5 ml tubes (BD Biosciences) and re-suspended in 0.1 ml PBS and viable cell counts undertaken using trypan blue.

[4] = test system: DCs; assay: IL-12p70 and IL-10 secretion by DCs undergoing maturation (ELISA of culture supernatants); assay type: cell-based, human
Protocol: Human PBMCs were isolated from Leukapheresis collections from healthy volunteers provided by Life Blood (Memphis, Tenn.). PBMCs were prepared by Ficoll-Histopaque density centrifugation and washed four times in PBS at room temperature. 2×10^8 PBMCs were re-suspended in 30 ml AIM-V medium and allowed to adhere to […] plastic flasks for 2 hours at 37° C. Non-adherent cells were removed and remaining cells cultured in X-VIVO 15 medium, supplemented with GM-CSF (1000 U/ml) and IL-4 (1000 U/ml), for 5-6 days at 37 C, 5% CO2.
Prior to electroporation, DCs were harvested and washed in PBS and then re-suspended in chilled Viaspane (Barr Laboratories) at 4×10^7/ml in 0.5 ml or 2.5×10^7/ml in 0.2 ml and placed on ice. DCs were mixed with mRNA (1 or 2 μg/10^6 for mRNA encoding antigen and 4 μg/10^6 for CD40L mRNA) and placed in a 4 mm gap electroporation cuvette and electroporated using Biorad apparatus. Immediately after electroporation, DCs were washed in X-VIVO 15 medium and finally re-suspended in X-VIVO 15 supplemented with GM-CSF (800 U/ml) and IL-4 (500 U/ml) at 1×10^6/ml and cultured for either 4 or 24 hours at 37° C. in low adherence six well plates (BD Biosciences, Franklin Lakes, N.J.). Additional maturation stimuli, described below, were also added at this point.
Following electroporation, DCs transfected with CD40L mRNA were treated with IFN-γ (1000 U/ml) or TNF-α (10 ng/ml) or a combination of IFN-γ and PGE2 (1 μg/ml). By comparison, immature DCs were transfected with various antigen-encoding mRNAs and were then treated with a “cytokine cocktail” comprising of TNF-α (10 ng/ml), IL-1β (10 ng/ml), IL-6 (100 ng/ml) and PGE2 (1 μg/ml) or soluble CD40L (200 ng/ml) plus enhancer (1 μg/ml) with either simultaneous or sequential addition of 1000 U/ml IFN-γ.
The method as laid out by BD Pharmingen for IL-12 and IL-10 ELISA sets (BD Pharmingen) using BD Opt EIA reagent set B pH 9.5. Briefly, ELISA plates (BD Biosciences) were coated with anti-IL-12p70 or anti-IL-10 ELISA capture antibody in coating buffer for 24 hours at 4° C. Plates underwent blocking with 200 μl per well 10% FCS/PBS for one hour prior to the addition of standards (BD Pharmingen) and supernatant samples, in duplicate, at 100 μl per well and incubated at room temperature for 2 hours. Plates were washed and anti-cytokine detection antibody added, incubated for one hour, the plates washed and solutions replaced with 100 μl of streptavidin-HRP and further incubated for one hour at room temperature. […] Plate analysis undertaken using Bio-Tek instruments ELx800 plate reader with KC junior software (Winooski, Vt.). […] Because the assays were set up so that 1 ml corresponds to 10^6 DCs, the results can also be expressed as number of picograms/10^6 DCs. […]

[5] = target: human CD40L protein translated from transfected CD40L mRNA (CD40L WT, >400 nucleotide polyA tail) (human) (UniProt P29965); assay: cell-based or functional assay
[6] = target: human CD40 (the receptor for CD40L) on monocyte-derived dendritic cells (human) (UniProt P25942); assay: cell-based or functional assay
Chain of UniProt P25942 (P25942 21-277 limits assumed): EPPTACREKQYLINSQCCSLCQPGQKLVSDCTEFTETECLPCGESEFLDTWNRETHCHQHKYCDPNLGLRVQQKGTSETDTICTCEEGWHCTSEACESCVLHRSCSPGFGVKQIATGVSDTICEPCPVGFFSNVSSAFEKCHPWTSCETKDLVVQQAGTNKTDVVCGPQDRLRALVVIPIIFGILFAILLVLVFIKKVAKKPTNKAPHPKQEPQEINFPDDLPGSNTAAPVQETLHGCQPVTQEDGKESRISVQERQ

Molecule: CCCCCCCCCCCCCCCCCCCCCCCCCC(=O)N[C@@H](CO[C@H]1O[C@H](CO)[C@H](O)[C@H](O)[C@H]1O)[C@H](O)[C@H](O)CCCCCCCCCCCCCC [KRN7000, (2S,3S,4R)-1-O-(alpha-D-galactopyranosyl)-2-(N-hexacosanoylamino)-1,3,4-octadecanetriol]
frequency of NKT-cells in PBMC cultures [1]: increase the frequency of NKT-cells
frequency of MART reactive T-cells [2]: significantly increases the frequency of MART reactive T-cells

Molecule: CCCCC[C@H](O)/C=C/[C@H]1[C@H](O)CC(=O)[C@@H]1C/C=C\CCCC(=O)O [PGE2]
DC migration [3]: enables the maturing DCs to migrate

Molecule: TNF-α
IL-12 production ([4]; 10 ng/ml TNF-α substituted for IFN-γ, CD40L mRNA transfected DCs, FIG. 5b): supports IL-12 production, but at reduced levels

IL-12p70 (pg/ml), "Cocktail" matured and reactivated DCs co-cultured with HeLa/>400 polyA + IFN-γ + 24-31 [5]: 2.5 pg/mL
IL-12p70 release from CD40L-mRNA-transfected DCs cultured with IFN-γ and 10 or 50 µg/ml blocking anti-CD40L antibody [5]: 50%
Molecule: blocking CD40L monoclonal antibody 24-31 (eBioscience)

IL-12p70 (pg/ml), "Cocktail" matured and reactivated DCs co-cultured with HeLa/>400 polyA + IFN-γ [6]: 26.3 pg/mL
IL-12p70 (pg/ml), immature DCs co-cultured with HeLa/>400 polyA + IFN-γ [6]: 372 pg/mL
Molecule: human CD40L protein translated from transfected CD40L mRNA (CD40L WT, >400 nucleotide polyA tail) (from UniProt P29965 1-261) (ligand)

Molecule: pCR2.1 CD40L WT Delta X-E: CD40L RNA transcribed from plasmid modified by removal of XbaI-EcoRV fragment with three cryptic ATG codons (sense GCATGATCGAAACATACAACC; RNA transcript of DNA sequence, chemistry not fully specified)
induction of IL-12 expression by transfected DCs ([4]; two independent DC transfection experiments, about 20 hrs post transfection, FIG. 18): performed better than the current CD40L reference standard

B1: IFN-γ: IFN-γ purchased from R&D Systems, first maturation signal (protein, listed as Homo sapiens)
chain: MKYTSYILAFQLCIVLGSLGCYCQDPYVKEAENLKKYFNAGHSDVADNGTLFLGILKNWKEESDRKIMQSQIVSFYFKLFKNFKDDQSIQKSVETIKEDMNVKFFNSNKKKRDDFEKLTNYSVTDLNVQRKAIHELIQVMAELSPAAKTGKRKRSQMLFQGRRASQ
IFN-γ required to support optimal induction of IL-12p70 ([4]; DCs transfected with 4 μg CD40L mRNA per million cells, FIG. 4): at least 100 U/ml
IL-10 production ([4]; IFN-γ versus TNF-α as co-maturation factor, CD40L mRNA transfected DCs, FIG. 5c): lower levels of IL-10 production than does TNF-α
